The data set deals with the molecule itself. The data set is described as follows: crystal structure.

B1: Saccharomyces cerevisiae alcohol dehydrogenase I (enzyme, UniProt P00330 1-348, looked up)
chain: MSIPETQKGVIFYESHGKLEYKDIPVPKPKANELLINVKYSGVCHTDLHAWHGDWPLPVKLPLVGGHEGAGVVVGMGENVKGWKIGDYAGIKWLNGSCMACEYCELGNESNCPHADLSGYTHDGSFQQYATADAVQAAHIPQGTDLAQVAPILCAGITVYKALKSANLMAGHWVAISGAAGGLGSLAVQYAKAMGYRVLGIDGGEGKEELFRSIGGEVFIDFTKEKDIVGAVLKATDGGAHGVINVSVSEAAIEASTRYVRANGTTVLVGMPAGAKCCSDVFNQVVKSISIVGSYVGNRADTREALDFFARGLVKSPIKVVGLSTLPEIYEKMEKGQIVGRYVVDTSK
modifications: disulfide bond between Cys-277 residues of the two subunits of a dimer
Turning to B1, the “stoichiometry N” value is 4 subunits per oligomer.

A word on the stoichiometry N: it is a count of units in the complex or per binding partner.

Values taken from publication PMC4165444 (Biochemistry, 2014).
